Measurements from US20240409634A1 (Janssen / Centocor, published 2024).
Where a chain is given by its changes, count along the chain named.

B1: CD33 antibody JL3 combined with Vdelta2 antibody 5D3 (JL3x5D3), Fab (CD33) x VHH (Vδ2) Fc construct (bispecific antibody, human IgG1, lambda, L234A L235A)
heavy: QVQLQESGPGLVKPSETLSLTCSVSGGSIRNYYWSWIRQSAGKELEWFGHIFSTGHINYDSSLKSRVTMSVDTSNNQFSLKLRSVTAADTAVYYCARDNGAALFDFWGQGTLVTVSSASTKGPSVFPLAPSSKSTSGGTAALGCLVKDYFPEPVTVSWNSGALTSGVHTFPAVLQSSGLYSLSSVVTVPSSSLGTQTYICNVNHKPSNTKVDKKVEPKSCDKTHTCPPCPAPEAAGGPSVFLFPPKPKDTLMISRTPEVTCVVVSVSHEDPEVKFNWYVDGVEVHNAKTKPREEQYNSTYRVVSVLTVLHQDWLNGKEYKCKVSNKALPAPIEKTISKAKGQPREPQVYTLPPSREEMTKNQVSLSCAVKGFYPSDIAVEWESNGQPENNYKTTPPVLDSDGSFFLVSKLTVDKSRWQQGNVFSCSVMHEALHNRFTQKSLSLSPGK
light: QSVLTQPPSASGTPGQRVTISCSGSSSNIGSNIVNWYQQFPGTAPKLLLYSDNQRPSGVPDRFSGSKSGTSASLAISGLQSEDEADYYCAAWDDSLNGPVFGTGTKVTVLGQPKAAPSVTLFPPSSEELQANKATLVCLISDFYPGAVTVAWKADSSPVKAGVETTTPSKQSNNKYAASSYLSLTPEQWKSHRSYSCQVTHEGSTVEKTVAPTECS
chain: EVQLVESGGGLVQAGGSLRLSCAASGRPFSNYAMGWFRQAPGKEREFVTVISWSGGSTYYADSVKGRFTISRDNAKNTVYLQMNSLKPEDTAVYYCAAQFSGASTVVAGTALDYDYWGQGTRVTVSSEPKSSDKTHTCPPCPAPEAAGGPSVFLFPPKPKDTLMISRTPEVTCVVVSVSHEDPEVKFNWYVDGVEVHNAKTKPREEQYNSTYRVVSVLTVLHQDWLNGKEYKCKVSNKALPAPIEKTISKAKGQPREPQVYTLPPSREEMTKNQVSLWCLVKGFYPSDIAVEWESNGQPENNYKTTPPVLDSDGSFFLYSKLTVDKSRWQQGNVFSCSVMHEALHNHYTQKSLSLSPGK
B2: CD33 antibody JL5 combined with Vdelta2 antibody 5D3 (JL5x5D3), Fab (CD33) x VHH (Vδ2) Fc construct (bispecific antibody, human IgG1, lambda, L234A L235A)
heavy: QVQLQESGPGLVKPSETLSLTCSVSGASIRNYYWSWIRQTAGKGLEWLGHIYSTGNIHYNPSLKSRVTMSVDTSNNQFSLKLRSVTAADTAVYYCARDNGAALFDYWGQGTLVTVSSASTKGPSVFPLAPSSKSTSGGTAALGCLVKDYFPEPVTVSWNSGALTSGVHTFPAVLQSSGLYSLSSVVTVPSSSLGTQTYICNVNHKPSNTKVDKKVEPKSCDKTHTCPPCPAPEAAGGPSVFLFPPKPKDTLYITREPEVTCVVVSVSHEDPEVKFNWYVDGVEVHNAKTKPREEQYNSTYRVVSVLTVLHQDWLNGKEYKCKVSNKALPAPIEKTISKAKGQPREPQVYTLPPSREEMTKNQVSLSCAVKGFYPSDIAVEWESNGQPENNYKTTPPVLDSDGSFFLVSKLTVDKSRWQQGNVFSCSVMHEALHNRFTQKSLSLSPGK
light: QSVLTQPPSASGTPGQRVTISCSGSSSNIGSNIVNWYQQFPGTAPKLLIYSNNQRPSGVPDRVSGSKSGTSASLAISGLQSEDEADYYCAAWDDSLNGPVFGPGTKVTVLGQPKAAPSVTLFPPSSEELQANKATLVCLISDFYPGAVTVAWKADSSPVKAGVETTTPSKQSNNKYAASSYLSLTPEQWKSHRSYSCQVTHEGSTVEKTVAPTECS
chain: B1 chain with M164Y, S166T, T168E
B3: CD33 antibody JL6 combined with Vdelta2 antibody 5D3 (JL6x5D3), Fab (CD33) x VHH (Vδ2) Fc construct (bispecific antibody, human IgG1, lambda, L234A L235A)
heavy: QVQLQESGPGLVKPSETLSLTCTVSGGSISSYYWGWIRQPPGKGLEWIGYIYYSGSTNYNPSLKSRVTISVDTSKNQFSLKLSSVTAADTAVYYCARMWEILGFDPWGQGTLVTVSSASTKGPSVFPLAPSSKSTSGGTAALGCLVKDYFPEPVTVSWNSGALTSGVHTFPAVLQSSGLYSLSSVVTVPSSSLGTQTYICNVNHKPSNTKVDKKVEPKSCDKTHTCPPCPAPEAAGGPSVFLFPPKPKDTLMISRTPEVTCVVVSVSHEDPEVKFNWYVDGVEVHNAKTKPREEQYNSTYRVVSVLTVLHQDWLNGKEYKCKVSNKALPAPIEKTISKAKGQPREPQVYTLPPSREEMTKNQVSLSCAVKGFYPSDIAVEWESNGQPENNYKTTPPVLDSDGSFFLVSKLTVDKSRWQQGNVFSCSVMHEALHNRFTQKSLSLSPGK
light: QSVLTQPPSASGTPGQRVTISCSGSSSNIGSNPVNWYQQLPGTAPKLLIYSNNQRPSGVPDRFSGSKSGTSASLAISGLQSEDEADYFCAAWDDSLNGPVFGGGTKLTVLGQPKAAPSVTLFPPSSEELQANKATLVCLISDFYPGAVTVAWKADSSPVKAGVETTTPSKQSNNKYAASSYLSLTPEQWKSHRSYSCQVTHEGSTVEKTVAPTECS
chain: B1 chain
B4: CD33 antibody JL2 combined with Vdelta2 antibody 6H4 (JL2x6H4), Fab (CD33) x VHH (Vδ2) Fc construct (bispecific antibody, human IgG1, kappa, L234A L235A)
heavy: EVQLVESGGGLVQPGGSLRLSCVVSGFTFSSYWMTWVRQAPGKGLEWVANIKQDGSERYYVDSVKGRFTISRDSAKNSLYLQMNSLRAEDTAVYYCAREVGYNWNQGGYFDYWGQGTLVTVSSASTKGPSVFPLAPSSKSTSGGTAALGCLVKDYFPEPVTVSWNSGALTSGVHTFPAVLQSSGLYSLSSVVTVPSSSLGTQTYICNVNHKPSNTKVDKKVEPKSCDKTHTCPPCPAPEAAGGPSVFLFPPKPKDTLMISRTPEVTCVVVSVSHEDPEVKFNWYVDGVEVHNAKTKPREEQYNSTYRVVSVLTVLHQDWLNGKEYKCKVSNKALPAPIEKTISKAKGQPREPQVYTLPPSREEMTKNQVSLSCAVKGFYPSDIAVEWESNGQPENNYKTTPPVLDSDGSFFLVSKLTVDKSRWQQGNVFSCSVMHEALHNRFTQKSLSLSPGK
light: DIVMTQSPLSLPVTPGEPASISCRSSQSLLHSDGYNYLDWYLQKSGQSPQLLIYLGSYRASGVPDRFSGSGSGTDFTLKISRVEAEDVGIYYCMQVLQTPWTFGQGTKVEIKRTVAAPSVFIFPPSDEQLKSGTASVVCLLNNFYPREAKVQWKVDNALQSGNSQESVTEQDSKDSTYSLSSTLTLSKADYEKHKVYACEVTHQGLSSPVTKSFNRGEC
chain: EVQLVESGGGLVQAGGSLRLSCAASGRPFSNYGMGWFRQAPGKKREFVAGISWSGGSTDYADSVKGRFTISRDNAKNTVYLQMNSLKPEDTAVYYCAAVFSGAETAYYPSDDYDYWGQGTQVTVSSEPKSSDKTHTCPPCPAPEAAGGPSVFLFPPKPKDTLMISRTPEVTCVVVSVSHEDPEVKFNWYVDGVEVHNAKTKPREEQYNSTYRVVSVLTVLHQDWLNGKEYKCKVSNKALPAPIEKTISKAKGQPREPQVYTLPPSREEMTKNQVSLWCLVKGFYPSDIAVEWESNGQPENNYKTTPPVLDSDGSFFLYSKLTVDKSRWQQGNVFSCSVMHEALHNHYTQKSLSLSPGK
B5: CD33 antibody JL2 combined with Vdelta2 antibody 5D3 (JL2x5D3), Fab (CD33) x VHH (Vδ2) Fc construct (bispecific antibody, human IgG1, kappa, L234A L235A)
heavy: B4 heavy
light: B4 light
chain: B1 chain
B6: CD33 antibody JL5 combined with Vdelta2 antibody 6H4 (JL5x6H4), Fab (CD33) x VHH (Vδ2) Fc construct (bispecific antibody, human IgG1, lambda, L234A L235A)
heavy: B2 heavy
light: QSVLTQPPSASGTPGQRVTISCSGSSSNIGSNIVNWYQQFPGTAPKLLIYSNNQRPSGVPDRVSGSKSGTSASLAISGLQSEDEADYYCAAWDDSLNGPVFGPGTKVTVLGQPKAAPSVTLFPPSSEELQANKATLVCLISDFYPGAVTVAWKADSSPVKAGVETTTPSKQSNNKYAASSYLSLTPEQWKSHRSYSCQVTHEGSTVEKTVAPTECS
chain: B4 chain with M163Y, S165T, T167E
B7: CD33 antibody JL3 combined with Vdelta2 antibody 6H4 (JL3x6H4), Fab (CD33) x VHH (Vδ2) Fc construct (bispecific antibody, human IgG1, lambda, L234A L235A)
heavy: B1 heavy
light: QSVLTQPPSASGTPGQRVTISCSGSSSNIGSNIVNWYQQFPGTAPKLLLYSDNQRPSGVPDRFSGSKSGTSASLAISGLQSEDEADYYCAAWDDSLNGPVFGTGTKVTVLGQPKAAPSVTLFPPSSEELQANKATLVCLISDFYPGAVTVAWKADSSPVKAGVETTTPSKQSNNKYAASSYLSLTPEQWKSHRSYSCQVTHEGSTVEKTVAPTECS
chain: B4 chain
B8: CD33 antibody JL6 combined with Vdelta2 antibody 6H4 (JL6x6H4), Fab (CD33) x VHH (Vδ2) Fc construct (bispecific antibody, human IgG1, lambda, L234A L235A)
heavy: B3 heavy
light: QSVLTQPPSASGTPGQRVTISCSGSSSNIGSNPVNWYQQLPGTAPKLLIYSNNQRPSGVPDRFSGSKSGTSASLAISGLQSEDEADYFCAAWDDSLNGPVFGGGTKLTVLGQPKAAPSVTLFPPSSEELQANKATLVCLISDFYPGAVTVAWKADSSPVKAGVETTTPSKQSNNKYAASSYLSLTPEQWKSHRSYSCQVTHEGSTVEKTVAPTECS
chain: B4 chain

Molecular target: human CD33 on CD33-expressing THP-1 cells (human, UniProt P20138 18-364)
Experiment: cell-based or functional assay

human CD33 on CD33-expressing THP-1 cells, sequence (P20138 18-364): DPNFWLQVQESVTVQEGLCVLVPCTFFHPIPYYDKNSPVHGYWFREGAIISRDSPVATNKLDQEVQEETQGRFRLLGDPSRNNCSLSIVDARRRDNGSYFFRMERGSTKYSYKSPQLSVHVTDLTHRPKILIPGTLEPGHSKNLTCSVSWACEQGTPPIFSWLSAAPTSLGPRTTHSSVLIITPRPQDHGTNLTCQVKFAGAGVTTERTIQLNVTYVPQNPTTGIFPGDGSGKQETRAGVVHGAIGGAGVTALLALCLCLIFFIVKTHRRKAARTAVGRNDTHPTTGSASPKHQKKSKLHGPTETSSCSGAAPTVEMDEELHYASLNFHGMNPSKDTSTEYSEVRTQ

Row | Binder | Cytotox EC50 (pM) E:T 1:1 - 22 hrs [pM] | Cytotox EC50 (pM) E:T 1:20 - 94 hrs [pM]
1 | B1 | 15 | 77
2 | B2 | 12 | 45
3 | B3 | 63 | ~560
4 | B4 | 4 | 20
5 | B5 | 28 | ~380
6 | B6 | 5.4 | 15
7 | B7 | 2.5 | 12
8 | B8 | 6.2 | 30
